Data on 1 molecule can be found in patent US9791449B2, “Ovarian cancer stem cells and methods of isolation and uses thereof” (THE GENERAL HOSPITAL CORPORATION, priority 2011, dated 2017).

“Also recorded” adds a separate entry of the source.

Data set [1] concerns epithelial ovarian cancers. Conditions: cited from earlier work.
The subject of data set [2] is MOVCAR-7 and MOVCAR-8 cell lines. In words: qPCR of CDK inhibitor mRNAs relative to GAPDH. The class given is cell-based, mouse. As for the experimental part: Total microRNA (miRNAs) were extracted from the different cell lines HOSE-4, HOSE-6, OVCAR-5, OVCAR-3, OVCAR-8, IGROV-1, and SKOV-3 using the miRNeasy Mini kit (QIAGEN) and reverse-transcribed to cDNAs using the TaqMan MicroRNA Reverse Transcription Kit (Applied Biosystems). Levels of Let-7c miRNAs were measured by quantitative PCR using TagMan Let-7 probes (Applied Biosystems; part no. 4373167) with U47 RNA as internal standard for normalization. Total mRNAs were also extracted from separated and unseparated OVCAR-5, MOVCAR-7, and MOVCAR-8 cell lines using an RNeasy Mini kit (QIAGEN) and reverse-transcribed to cDNAs using the SuperScript III Reverse Transcription Kit (Invitrogen). Levels of Lin28 and cyclin-dependent kinase (CDK) inhibitor mRNAs were measured by quantitative PCR with GAPDH as an internal standard using the following primers: […]
LIN28 F ([…])(SEQ ID NO: 34) and R ([…])(SEQ ID NO: 35); p15 F ([…])(SEQ ID NO: 36) and R ([…])(SEQ ID NO: 37); p16 F ([…])(SEQ ID NO: 38) and R ([…])(SEQ ID NO: 39); p18 F ([…])(SEQ ID NO: 40) and R ([…])(SEQ ID NO: 41); p19F ([…])(SEQ ID NO: 42) and R ([…])(SEQ ID NO: 43); p21 F ([…])(SEQ ID NO: 44) and R ([…])(SEQ ID NO: 45); p27 F ([…])(SEQ ID NO: 46) and R ([…])(SEQ ID NO: 47); CDK2 F ([…])(SEQ ID NO: 48) and R ([…])(SEQ ID NO: 49); CDK4 F ([…])(SEQ ID NO: 50) and R([…])(SEQ ID NO: 51); CDK6 F ([…])(SEQ ID NO: 52) and R ([…])(SEQ ID NO: 53); and GAPDH F ([…])(SEQ ID NO: 54) and R ([…])(SEQ ID NO: 55). Relative fold changes of Let-7c miRNAs and Lin28 and CDK inhibitor mRNAs were calculated as ΔCt or ΔΔCt (1) (n=3 for each primer).

The subject of data set [3] is SMAD1/5/8 in OVCAR-5 cells. In words: Western blot with phospho-Smad1/5/8 antibody. The format is cell-based, human. Particulars: OVCAR-5, 100 ug/ml MIS for 15 min, 2, 4 and 6 h. As for the experimental part: (§1) FIGS. 5A-5B show MISRII is expressed in ovarian cancer cell lines and SMAD 1/5/8 is phosphorylated after treatment with purified MIS. FIG. 5A show expression of MIS type II receptor in human ovarian cancer cell lines OVCAR-5, IGROV-1 and SKOV-3, and in mouse ovarian cancer cell line MOVCAR-8 were analyzed by immunoprecipitation and cross immunoblotting (IB) of lysates with anti-MISRII (Left) Immunoblotting was also performed to detect MISRII expression in separated 3+, 3−, 3+/Ecad−, 3−Ecad+ of OVCAR-5 xenograft tumors (Right). COS cells transfected with a MISRII vector or a pcDNA empty vector served as positive or negative controls (Right). […] MOVCAR-8 (Left) or OVCAR-5 (Right) cells were treated with 20 ug/ml (Left) or 100 ug/ml (Right) MIS for 15 min, 2, 4 and 6 h, and protein was analyzed by Western blot using a phospho-Smad1/5/8 antibody.
(§2) Lysates were harvested in lysis buffer (Cell Signaling; catalog no. 9803) for 15 min from 80% subconfluent cells or from ascite cells after lysing red cells. Proteins were fractionated on SDS-polyacrylamide gels and transferred to a membrane. […] Blots were washed (three times) with TBST the following day for 30 min and incubated with the appropriate peroxidase-conjugated second antibodies for 1 h, and bound antibodies were detected with enhanced chemiluminescence (PerkinElmer Life Sciences).

For data set [4] the following is noted: in vivo; cited from earlier work.
Data set [5] deals with Lin28 in OVCAR-5 cells or primary ascites. The data set is described as follows: Effect of exogenously administered MIS on Lin28 expression. Conditions: separated or unseparated OVCAR-5 cells or primary ascites; data not shown. The format is cell-based, human.
In data set [6] the test system is SMAD1/5/8 in MOVCAR-8 cells. The data set is described as follows: Western blot with phospho-Smad1/5/8 antibody. The format is cell-based, mouse. Particulars: MOVCAR-8, 20 ug/ml MIS for 15 min, 2, 4 and 6 h. As for the experimental part:
as §1, §2

A further data set concerns OVCAR-8 cells. Conditions: cited from earlier work.
The next data set deals with 3+/Ecad− OVCAR-5 cells. The data set is described as follows: Colony formation assay of FACS-separated cells. The class given is cell-based, human. Conditions: OVCAR-5 3+/Ecad− cells, 2000 cells in six-well plates; MIS 30 ug/ml or Doxorubicin 30 nM vs media, 14 days. As to the method: Colony formation was performed as previously described (4; wei 2010). 3+/Ecad− or 3−/Ecad+ cells separated from the ovarian cancer cell lines were treated with MIS or doxorubicin, cisplatin, or taxol, then plated on 6-well plates containing 2 ml/well complete DMEM medium at 500, 1000, or 2000 cells/well, and incubated for 14 days at 37° C., with a media change at day 7. Cells separated from primary ascites were plated on 12-well plates coated by metrigel or by agarose for colony formation assays at 25,000, 50,000, or 100,000 cells/well. Cells were seeded on 1:2 metrigel or in 0.4% agarose over a 0.8% layer, and incubated for 3-4 weeks at 37° C. At day 14 (cell lines) or day 21 (ascites), plates were washed with 1×PBS, and cells fixed with methanol. Resulting colonies were stained with Giemsa and the stained area captured and analyzed using Image J (Rasband, NIH, USA, http://rsb.info.nih.gov/ij/). Large colonies greater than 4 mm at 10× magnification were also counted and compared.

Data set [7] relates to ovarian cancer cells marked by CD44, CD24, and Epcam (3+). Conditions: cited from earlier work.
In another data set the test system is 3+/Ecad− population. Particulars: cited from earlier work.
The test system of the next data set is OVCAR-5 cells. The data set is described as follows: Cell cycle analysis by flow cytometry. The class given is cell-based, human. Conditions: 100 μg/mL (714 nM) MIS or 60 nM doxorubicin, 48 h. As for the experimental part:
OVCAR-5 was grown to 50-60% confluency in DMEM with 10% FCS, untreated or treated with 100 μg/mL (714 nM) MIS or 60 nM doxorubicin for 48 h, harvested, and incubated with 10 μg/mL Hoechst 33342 at 37° C. for 30 min or 40 μg/mL propidium iodide (Sigma) at 25° C. for 30 min. Cells were stained with anti-human CD24-PE, anti-mouse/human CD44-APC/Cy7, anti-human Epcam-APC, and anti-human Ecadherin-FITC for 20 min at 4° C. and fixed in paraformaldehyde (1%), and the cell cycle was analyzed using the SORP LSRII.

The mark [8] stands for this setting: listed as human recombinant MIS.

B1: MIS: 140 kDa glycoprotein disulfide linked homodimer secreted by fetal testes; produced recombinantly and immunoaffinity purified (protein, listed as Homo sapiens)
chain: MRDLPLTSLALVLSALGALLGTEALRAEEPAVGTSGLIFREDLDWPPGSPQEPLCLVALGGDSNGSSSPLRVVGALSAYEQAFLGAVQRARWGPRDLATFGVCNTGDRQAALPSLRRLGAWLRDPGGQRLVVLHLEEVTWEPTPSLRFQEPPPGGAGPPELALLVLYPGPGPEVTVTRAGLPGAQSLCPSRDTRYLVLAVDRPAGAWRGSGLALTLQPRGEDSRLSTARLQALLFGDDHRCFTRMTPALLLLPRSEPAPLPAHGQLDTVPFPPPRPSAELEESPPSADPFLETLTRLVRALRVPPARASAPRLALDPDALAGFPQGLVNLSDPAALERLLDGEEPLLLLLRPTAATTGDPAPLHDPTSAPWATALARRVAAELQAAAAELRSLPGLPPATAPLLARLLALCPGGPGGLGDPLRALLLLKALQGLRVEWRGRDPRGPGRAQRSAGATAADGPCALRELSVDLRAERSVLIPETYQANNCQGVCGWPQSDRNPRYGNHVVLLLKMQARGAALARPPCCVPTAYAGKLLISLSEERISAHHVPNMVATECGCR
modifications: homodimer
In the case of B1, in data set [1], the “combination with commonly used cancer drugs to control tumor growth” value is listed as “synergistically or additively”. Also, the “growth of epithelial ovarian cancers” value in [1] (in vitro and in vivo) is reported as “inhibits their growth”. Besides, the p15 expression entry in data set [2] (MOVCAR-7 and -8, 50 μg/mL MIS or 60 nM doxorubicin vs vehicle, 4 h) was “specifically increased; also recorded: significant and opposite responses”. In addition, the “other CDK inhibitors mRNA levels (p18, p19, p21, p27)” value in data set [2] (MOVCAR-7 or -8, 50 μg/mL MIS or 60 nM doxorubicin, 4 h) was “did not regulate significantly”. Moreover, the p16 expression result in data set [2] (MOVCAR-8, 50 μg/mL MIS vs vehicle, 4 h) is “specifically increased”. The “kinases tested (CDK2, CDK4, CDK6)” value in data set [2] (transgenic cell lines treated with MIS or doxorubicin, data not shown) was “unaffected”. Further, the SMAD1/5/8 phosphorylation result in data set [3] is recorded as “significantly increased”; in [3] (setting [8]), “activates SMAD1/5/8 signaling”; in data set [6], “significantly increased”; in data set [6] (setting [8]), “activates SMAD1/5/8 signaling”. In addition, in data set [4], the “toxicity after prolonged therapy” value is reported as “without obvious toxicity”. The “effect on Lin28 expression” value in [5] is “no direct effect”. Also, the P16 protein level result in the data set on OVCAR-8 cells is reported as “upregulated”. Also, in the data set on 3+/Ecad− OVCAR-5 cells, the “colony formation of 3+/Ecad− cells” value was “decreased colony formation; also recorded: decreases significantly; also recorded: significantly inhibited colony growth; also recorded: significant reduction in absolute colony number and cell number; also recorded: significant reduction in absolute colony numbers; also recorded: inhibited colony formation”. Moreover, the “inhibition of 3+ enriched population” value in data set [7] was “significantly inhibited”. In addition, the “response of 3+/Ecad− population” value in the data set on 3+/Ecad− population is listed as “responded well”. Also, the “G1 distribution of 3+/Ecad+ population” value in the data set with OVCAR-5 cells is “neither MIS nor doxorubicin affected”. In addition, in the data set on OVCAR-5 cells, the “percentage of 3+/Ecad− cells in G1” value is “inducing G1 arrest; also recorded: significantly increased; also recorded: G1 accumulation; also recorded: induces G1 cell cycle arrest”.
